# In publication PMC8294587, “Intrinsic differences in the mechanisms of Tie2 binding to angiopoietins exploited by directed evolution to create an Ang2-selective ligand trap” (The Journal of Biological Chemistry, 2021):
# Residue numbers refer to the chain shown, from its start. Names and notes keep the numbering of the source.
# T1: Angiopoietin-2 (UniProt O15123 19-496)
# T1 construct: recombinant Ang2; the residue numbers printed for Ang2 (Asp448, Phe469, Ser480) come from the cited structure 2GY7; also called Ang2; source: recombinant
# T1 sequence (looked up): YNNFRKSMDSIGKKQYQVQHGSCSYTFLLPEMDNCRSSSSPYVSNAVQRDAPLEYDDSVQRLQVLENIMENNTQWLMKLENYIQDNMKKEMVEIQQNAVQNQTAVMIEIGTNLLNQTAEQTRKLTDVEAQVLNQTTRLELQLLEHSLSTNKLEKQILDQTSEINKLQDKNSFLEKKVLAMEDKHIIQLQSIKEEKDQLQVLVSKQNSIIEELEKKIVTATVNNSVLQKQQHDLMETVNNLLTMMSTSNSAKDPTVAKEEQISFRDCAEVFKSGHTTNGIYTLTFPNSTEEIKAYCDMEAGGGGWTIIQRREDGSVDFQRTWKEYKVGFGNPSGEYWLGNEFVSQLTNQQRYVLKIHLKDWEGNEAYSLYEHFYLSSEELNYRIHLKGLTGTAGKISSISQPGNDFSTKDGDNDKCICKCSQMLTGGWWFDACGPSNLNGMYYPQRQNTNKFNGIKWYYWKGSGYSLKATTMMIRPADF
# T2: Angiopoietin-1 (UniProt Q15389 16-498)
# T2 construct: recombinant Ang1; the residue numbers printed for Ang1 (Gln415, Asp450, Leu471, Tyr478) come from the cited structure 4K0V; also called Ang1; source: recombinant
# T2 sequence (looked up): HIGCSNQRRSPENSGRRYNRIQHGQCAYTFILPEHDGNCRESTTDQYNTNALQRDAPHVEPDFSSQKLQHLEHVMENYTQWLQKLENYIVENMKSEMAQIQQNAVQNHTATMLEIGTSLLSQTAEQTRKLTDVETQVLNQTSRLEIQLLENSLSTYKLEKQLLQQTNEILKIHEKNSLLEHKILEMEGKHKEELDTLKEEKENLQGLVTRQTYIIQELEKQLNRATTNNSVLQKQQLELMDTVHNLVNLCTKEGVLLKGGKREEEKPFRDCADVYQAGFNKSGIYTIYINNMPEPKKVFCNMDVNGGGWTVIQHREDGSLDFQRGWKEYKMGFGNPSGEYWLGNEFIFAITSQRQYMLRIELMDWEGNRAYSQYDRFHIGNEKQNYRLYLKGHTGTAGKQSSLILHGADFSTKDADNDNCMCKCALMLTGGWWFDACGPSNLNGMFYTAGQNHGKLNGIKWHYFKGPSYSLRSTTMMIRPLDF
# B1: R5 Tie2 ectodomain-Fc (Phe161Ile, deletion of Arg167 and His168, Ser164Leu, Pro171Ser) (Fc fusion, human, UniProt Q02763 23-442, looked up)
# chain: AMDLILINSLPLVSDAETSLTCIASGWRPHEPITIGRDFEALMNQHQDPLEVTQDVTREWAKKVVWKREKASKINGAYFCEGRVRGEAIRIRTMKMRQQASFLPATLTMTVDKGDNVNISFKKVLIKEEDAVIYKNGSIIHLVPEVSDILEVHLPHAQPQDAGVYSARYIGGNLFTSAFTRLIVRRCEAQKWGPECNHLCTACMNNGVCHEDTGECICPPGFMGRTCEKACELHTFGRTCKERCSGQEGCKSYVFCLPDPYGCSCATGWKGLQCNEACHPGFYGPDCKLRCSCNNGEMCDRFQGCLCSPGWQGLQCEREGIQRMTPKIVDLPDHIEVNSGKFNPICKASGWPLPTNEEMTLVKPDGTVLHPKDFNHTDHFSVAIFTIHRILPPDSGVWVCSVNTVAGMVEKPFNISVK
# notes: signal peptide in the construct; Tie2 ectodomain, human, residues 1-442, variant from directed evolution; also called R5-Fc; evolved ectodomain; source: Hek293, transfected, purified from culture medium (nickel chromatography); not shown: Fc (fragment of human Fc immunoglobulin domain, after a GS4 linker), C-terminal, kept
# B2: R5 Tie2 ectodomain-Fc with Ser171 reverted back to Pro (Fc fusion, human, UniProt Q02763 23-442, looked up)
# chain: B1 chain with S147P
# notes: signal peptide in the construct; Tie2 ectodomain, human, residues 1-442; also called evolved ectodomain in which Ser171 was reverted back to Pro; source: Hek293, transfected, purified from culture medium (nickel chromatography); not shown: Fc (fragment of human Fc immunoglobulin domain, after a GS4 linker), C-terminal, kept
# B3: Tie2 ectodomain-Fc Arg167Ala/His168Ala/Glu169Ala (Fc fusion, human, UniProt Q02763 23-442, looked up)
# chain: AMDLILINSLPLVSDAETSLTCIASGWRPHEPITIGRDFEALMNQHQDPLEVTQDVTREWAKKVVWKREKASKINGAYFCEGRVRGEAIRIRTMKMRQQASFLPATLTMTVDKGDNVNISFKKVLIKEEDAVIYKNGSFIHSVPAAAVPDILEVHLPHAQPQDAGVYSARYIGGNLFTSAFTRLIVRRCEAQKWGPECNHLCTACMNNGVCHEDTGECICPPGFMGRTCEKACELHTFGRTCKERCSGQEGCKSYVFCLPDPYGCSCATGWKGLQCNEACHPGFYGPDCKLRCSCNNGEMCDRFQGCLCSPGWQGLQCEREGIQRMTPKIVDLPDHIEVNSGKFNPICKASGWPLPTNEEMTLVKPDGTVLHPKDFNHTDHFSVAIFTIHRILPPDSGVWVCSVNTVAGMVEKPFNISVK
# notes: signal peptide in the construct; Tie2 ectodomain, human, residues 1-442; also called triple alanine substitution of Arg167, His168 and Glu169; source: Hek293, transfected, purified from culture medium (nickel chromatography); not shown: Fc (fragment of human Fc immunoglobulin domain, after a GS4 linker), C-terminal, kept
# B4: Tie2 ectodomain-Fc Arg167Ala/His168Ala (Fc fusion, human, UniProt Q02763 23-442, looked up)
# chain: B3 chain with A147E
# notes: signal peptide in the construct; Tie2 ectodomain, human, residues 1-442; also called Arg167Ala/His168Ala Tie2 ectodomain mutant; double substitution; source: Hek293, transfected, purified from culture medium (nickel chromatography); not shown: Fc (fragment of human Fc immunoglobulin domain, after a GS4 linker), C-terminal, kept
# B5: monomeric wild-type Tie2 ectodomain (domain or fragment, human, UniProt Q02763 23-748, looked up)
# chain: AMDLILINSLPLVSDAETSLTCIASGWRPHEPITIGRDFEALMNQHQDPLEVTQDVTREWAKKVVWKREKASKINGAYFCEGRVRGEAIRIRTMKMRQQASFLPATLTMTVDKGDNVNISFKKVLIKEEDAVIYKNGSFIHSVPRHEVPDILEVHLPHAQPQDAGVYSARYIGGNLFTSAFTRLIVRRCEAQKWGPECNHLCTACMNNGVCHEDTGECICPPGFMGRTCEKACELHTFGRTCKERCSGQEGCKSYVFCLPDPYGCSCATGWKGLQCNEACHPGFYGPDCKLRCSCNNGEMCDRFQGCLCSPGWQGLQCEREGIQRMTPKIVDLPDHIEVNSGKFNPICKASGWPLPTNEEMTLVKPDGTVLHPKDFNHTDHFSVAIFTIHRILPPDSGVWVCSVNTVAGMVEKPFNISVKVLPKPLNAPNVIDTGHNFAVINISSEPYFGDGPIKSKKLLYKPVNHYEAWQHIQVTNEIVTLNYLEPRTEYELCVQLVRRGEGGEGHPGPVRRFTTASIGLPPPRGLNLLPKSQTTLNLTWQPIFPSSEDDFYVEVERRSVQKSDQQNIKVPGNLTSVLLNNLHPREQYVVRARVNTKAQGEWSEDLTAWTLSDILPPQPENIKISNITHSSAVISWTILDGYSISSITIRYKVQGKNEDQHVDVKIKNATITQYQLKGLEPETAYQVDIFAENNIGSSNPAFSHELVTLPESQAPADLGGGKMLL
# notes: wild-type Tie2 ectodomain, monomeric form; also called Wt monomer; monomeric Tie2
# B6: wild-type Tie2 ectodomain-Fc (Fc fusion, human, UniProt Q02763 23-442, looked up)
# chain: B3 chain with A145R, A146H, A147E
# notes: signal peptide in the construct; Tie2 ectodomain, human, residues 1-442; Order on the chain: Tie2 1-442, GS4 linker, human Fc fragment, His6; also called Wt; Wt-Tie2; source: Hek293, transfected, purified from culture medium (nickel chromatography); not shown: Fc (fragment of human Fc immunoglobulin domain, after a GS4 linker), C-terminal, kept
# B7: Tie2 ectodomain-Fc E169A (Fc fusion, human, UniProt Q02763 23-442, looked up)
# chain: B3 chain with A145R, A146H
# notes: signal peptide in the construct; Tie2 ectodomain, human, residues 1-442; also called Glu169Ala; source: Hek293, transfected, purified from culture medium (nickel chromatography); not shown: Fc (fragment of human Fc immunoglobulin domain, after a GS4 linker), C-terminal, kept
# B8: Tie2 ectodomain-Fc I162A (Fc fusion, human, UniProt Q02763 23-442, looked up)
# chain: B3 chain with I140A, A145R, A146H, A147E
# notes: signal peptide in the construct; Tie2 ectodomain, human, residues 1-442; source: Hek293, transfected, purified from culture medium (nickel chromatography); not shown: Fc (fragment of human Fc immunoglobulin domain, after a GS4 linker), C-terminal, kept
# B9: Tie2 ectodomain-Fc V165A (Fc fusion, human, UniProt Q02763 23-442, looked up)
# chain: B3 chain with V143A, A145R, A146H, A147E
# notes: as for B8
# B10: Tie2 ectodomain-Fc H163A (Fc fusion, human, UniProt Q02763 23-442, looked up)
# chain: B3 chain with H141A, A145R, A146H, A147E
# notes: as for B8
# B11: Tie2 ectodomain-Fc R167A (Fc fusion, human, UniProt Q02763 23-442, looked up)
# chain: B3 chain with A146H, A147E
# notes: signal peptide in the construct; Tie2 ectodomain, human, residues 1-442; also called Arg167Ala; source: Hek293, transfected, purified from culture medium (nickel chromatography); not shown: Fc (fragment of human Fc immunoglobulin domain, after a GS4 linker), C-terminal, kept
# B12: Tie2 ectodomain-Fc H168A (Fc fusion, human, UniProt Q02763 23-442, looked up)
# chain: B3 chain with A145R, A147E
# notes: signal peptide in the construct; Tie2 ectodomain, human, residues 1-442; also called Tie2(H168A); His168Ala; source: Hek293, transfected, purified from culture medium (nickel chromatography); not shown: Fc (fragment of human Fc immunoglobulin domain, after a GS4 linker), C-terminal, kept
# B13: Tie2 ectodomain-Fc S164A (Fc fusion, human, UniProt Q02763 23-442, looked up)
# chain: B3 chain with S142A, A145R, A146H, A147E
# notes: as for B8
# Molecular target: T1, Angiopoietin-2
# Assay: ELISA; recombinant Ang1 or Ang2 immobilised on Maxisorp plates, blocked with TBS, 0.1% Triton-X100, 5% milk powder; Tie2 ectodomain proteins bound for 1 h; detected with anti-Tie2 ectodomain antibodies; EC50 = concentration of ectodomain for 50% of maximal binding
# Conditions: both partners purified
EC50 [nM],binding result,Binder
3.4,,B1
,binds,B2
,binds,B3
,binds,B4
22.7,,B5

# Molecular target: T2, Angiopoietin-1
# Assay: as above
# Conditions: both partners purified
row,binding result,Binder
1,binds,B4

# Molecular target: T1, Angiopoietin-2
# Assay: as above
# Conditions: both partners purified
# Remark: another data set of the same source
row,EC50 [nM],Binder
1,1.37,B6
2,3.94,B7
3,23.1,B8
4,77.7,B9
5,5.88,B10
6,10.3,B11
7,0.5,B12
8,14.4,B13

# Molecular target: T2, Angiopoietin-1
# Assay: as above
# Conditions: both partners purified
# Remark: another data set of the same source
row,EC50 [nM],Binder
1,0.66,B6
2,9,B7
3,6.38,B8
4,14.3,B9
5,1.38,B10
6,26.6,B11
7,26.4,B12
8,0.44,B13
